Data set [1] relates to HeLa Kyoto. The data set can be described thus: thermal stability score vs G1/S (z-score of summed log2 fold changes over temperatures); higher = more thermally stable than in G1/S.
Data set [2] has as its system HeLa Kyoto. Briefly: solubility change mitosis vs G1/S (difference of NP-40 vs SDS log2 ratios) (log2 ratio difference); higher = more soluble in mitosis.
Data set [3] concerns HeLa Kyoto. Briefly: melting temperature (median over replicates), in situ; higher = more thermally stable.
Data set [4] relates to HeLa Kyoto. The data set can be described thus: solubility in G1/S (NP-40 vs SDS abundance) (log2 ratio); higher = more soluble. The note with it: cell cycle stage: G1/S.
Setting [5] is: cell cycle stage: early G1 (4.5 h after nocodazole release).
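For melting temperature (median over replicates), in situ in this document: HeLa Kyoto cells synchronized by double thymidine or nocodazole block, proteins quantified by TMT10plex mass spectrometry, three independent biological replicates.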
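For solubility change mitosis vs G1/S (difference of NP-40 vs SDS log2 ratios) in this document: synchronized HeLa Kyoto cells (double thymidine block for G1/S, nocodazole release for mitosis), protein amounts in NP-40 versus SDS lysates quantified by mass spectrometry, three biological replicates.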
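For solubility in G1/S (NP-40 vs SDS abundance) in this document: HeLa Kyoto cells arrested at G1/S by double thymidine block, proteins quantified by TMT10plex mass spectrometry in mild NP-40 versus SDS extracts, three biological replicates.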
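For thermal stability score vs G1/S (z-score of summed log2 fold changes over temperatures) in this document: synchronized HeLa Kyoto cells, proteins quantified by TMT10plex mass spectrometry, three biological replicates, mitosis taken 0.5 h after nocodazole release, G1/S directly after double thymidine block.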

On to “MAIKSIASRLRGSRRFLSGFVAGAVVGAAGAGLAALQFFRSQGAEGALTGKQPDGSAEKAVLEQFGFPLTGTEARCYTNHALSYDQAKRVPRWVLEHISKSKIMGDADRKHCKFKPDPNIPPTFSAFNEDYVGSGWSRGHMAPAGNNKFSSKAMAETFYLSNIVPQDFDNNSGYWNRIEMYCRELTERFEDVWVVSGPLTLPQTRGDGKKIVSYQVIGEDNVAVPSHLYKVILARRSSVSTEPLALGAFVVPNEAIGFQPQLTEFQVSLQDLEKLSGLVFFPHLDRTSDIRNICSVDTCKLLDFQEFTLYLSTRKIEGARSVLRLEKIMENLKNAEIEPDDYFMSRYEKKLEELKAKEQSGTQIRKPS [EXOG]”, for which the thermal stability score was 2.74 in data set [1] (setting [5]) and -1.52 in data set [1] (cell cycle stage: mitosis). Also, the “solubility change mitosis (log2)” value in data set [2] is -0.0598. Moreover, the melting temperature in data set [3] (cell cycle stage: G1/S) turned out to be 52.8 °C; in data set [3] (cell cycle stage: mitosis), 51.3 °C. For the same sequence, in data set [4], the “solubility in G1/S (log2)” value was 0.21.

As for “MAIQFRSLFPLALPGMLALLGWWWFFSRKKGHVSSHDEQQVEAGAVQLRADPAIKEPLPVEDVCPKVVSTPPSVTEPPEKELSTVSKLPAEPPALLQTHPPCRRSESSGILPNTTDMRLRPGTRRDDSTKLELALTGGEAKSIPLECPLSSPKGVLFSSKSAEVCKQDSPFSRVPRKVQPGYPVVPAEKRSSGERARETGGAEGTGDAVLGEKVLEEALLSREHVLELENSKGPSLASLEGEEDKGKSSSSQVVGPVQEEEYVAEKLPSRFIESAHTELAKDDAAPAPPVADAKAQDRGVEGELGNEESLDRNEEGLDRNEEGLDRNEESLDRNEEGLDRNEEIKRAAFQIISQVISEATEQVLATTVGKVAGRVCQASQLQGQKEESCVPVHQKTVLGPDTAEPATAEAAVAPPDAGLPLPGLPAEGSPPPKTYVSCLKSLLSSPTKDSKPNISAHHISLASCLALTTPSEELPDRAGILVEDATCVTCMSDSSQSVPLVASPGHCSDSFSTSGLEDSCTETSSSPRDKAITPPLPESTVPFSNGVLKGELSDLGAEDGWTMDAEADHSGGSDRNSMDSVDSCCSLKKTESFQNAQAGSNPKKVDLIIWEIEVPKHLVGRLIGKQGRYVSFLKQTSGAKIYISTLPYTQSVQICHIEGSQHHVDKALNLIGKKFKELNLTNIYAPPLPSLALPSLPMTSWLMLPDGITVEVIVVNQVNAGHLFVQQHTHPTFHALRSLDQQMYLCYSQPGIPTLPTPVEITVICAAPGADGAWWRAQVVASYEETNEVEIRYVDYGGYKRVKVDVLRQIRSDFVTLPFQGAEVLLDSVMPLSDDDQFSPEADAAMSEMTGNTALLAQVTSYSPTGLPLIQLWSVVGDEVVLINRSLVERGLAQWVDSYYTSL [AKAP1]”, the values for the thermal stability score in data set [1] (setting [5]) and in data set [1] (cell cycle stage: mitosis) were 0.769 and 1.64, respectively. Moreover, the “solubility change mitosis (log2)” value in data set [2] is -0.0592. Further, the figures for the melting temperature in data set [3] (cell cycle stage: G1/S) and in data set [3] (cell cycle stage: mitosis) were 50.3 °C and 50.6 °C, respectively. In data set [4], the “solubility in G1/S (log2)” value was -0.0583.

Consider “MAITLEEAPWLGWLLVKALMRFAFMVVNNLVAIPSYICYVIILQPLRVLDSKRFWYIEGIMYKWLLGMVASWGWYAGYTVMEWGEDIKAVSKDEAVMLVNHQATGDVCTLMMCLQDKGLVVAQMMWLMDHIFKYTNFGIVSLVHGDFFIRQGRSYRDQQLLLLKKHLENNYRSRDRKWIVLFPEGGFLRKRRETSQAFAKKNNLPFLTNVTLPRSGATKIILNALVAQQKNGSPAGGDAKELDSKSKGLQWIIDTTIAYPKAEPIDIQTWILGYRKPTVTHVHYRIFPIKDVPLETDDLTTWLYQRFVEKEDLLSHFYETGAFPPSKGHKEAVSREMTLSNLWIFLIQSFAFLSGYMWYNIIQYFYHCLF [LPGAT1]”, for which the thermal stability score was 0.187 in data set [1] (setting [5]) and -0.757 in data set [1] (cell cycle stage: mitosis). In addition, the “solubility change mitosis (log2)” value in data set [2] was -0.152. The melting temperature came out at 51.1 °C in data set [3] (cell cycle stage: G1/S) and 51.3 °C in data set [3] (cell cycle stage: mitosis). Besides, the “solubility in G1/S (log2)” value in data set [4] is -0.142.

As to “MAKAYDHLFKLLLIGDSGVGKTCLIIRFAEDNFNNTYISTIGIDFKIRTVDIEGKKIKLQVWDTAGQERFKTITTAYYRGAMGIILVYDITDEKSFENIQNWMKSIKENASAGVERLLLGNKCDMEAKRKVQKEQADKLAREHGIRFFETSAKSSMNVDEAFSSLARDILLKSGGRRSGNGNKPPSTDLKTCDKKNTNKCSLG [RAB13]”, the results for the thermal stability score in data set [1] (setting [5]) and in data set [1] (cell cycle stage: mitosis) were -0.483 and -1.07, respectively. Moreover, the “solubility change mitosis (log2)” value in data set [2] was -0.198. For the same sequence, the melting temperature is 53.5 °C in data set [3] (cell cycle stage: G1/S) and 53 °C in data set [3] (cell cycle stage: mitosis). Further, in data set [4], the “solubility in G1/S (log2)” value is -0.134.

As to “MAKISSPTETERCIESLIAVFQKYAGKDGYNYTLSKTEFLSFMNTELAAFTKNQKDPGVLDRMMKKLDTNSDGQLDFSEFLNLIGGLAMACHDSFLKAVPSQKRT [S100A11]”, the results for the thermal stability score in data set [1] (setting [5]) and in data set [1] (cell cycle stage: mitosis) were -4.03 and -4.13, respectively. The “solubility change mitosis (log2)” value in data set [2] worked out at 0.343. The melting temperature in data set [3] (cell cycle stage: G1/S) was determined as 53.8 °C; in data set [3] (cell cycle stage: mitosis) it was 52.6 °C. Further, the “solubility in G1/S (log2)” value in data set [4] is -1.04.

Take “MAKLLSCVLGPRLYKIYRERDSERAPASVPETPTAVTAPHSSSWDTYYQPRALEKHADSILALASVFWSISYYSSPFAFFYLYRKGYLSLSKVVPFSHYAGTLLLLLAGVACLRGIGRWTNPQYRQFITILEATHRNQSSENKRQLANYNFDFRSWPVDFHWEEPSSRKESRGGPSRRGVALLRPEPLHRGTADTLLNRVKKLPCQITSYLVAHTLGRRMLYPGSVYLLQKALMPVLLQGQARLVEECNGRRAKLLACDGNEIDTMFVDRRGTAEPQGQKLVICCEGNAGFYEVGCVSTPLEAGYSVLGWNHPGFAGSTGVPFPQNEANAMDVVVQFAIHRLGFQPQDIIIYAWSIGGFTATWAAMSYPDVSAMILDASFDDLVPLALKVMPDSWRGLVTRTVRQHLNLNNAEQLCRYQGPVLLIRRTKDEIITTTVPEDIMSNRGNDLLLKLLQHRYPRVMAEEGLRVVRQWLEASSQLEEASIYSRWEVEEDWCLSVLRSYQAEHGPDFPWSVGEDMSADGRRQLALFLARKHLHNFEATHCTPLPAQNFQMPWHL [ABHD16A]”: the thermal stability score is 0.0741 in data set [1] (setting [5]) and -0.0149 in data set [1] (cell cycle stage: mitosis). In addition, the “solubility change mitosis (log2)” value in data set [2] was -0.122. Also, the melting temperature is 51 °C in data set [3] (cell cycle stage: G1/S) and 51.3 °C in data set [3] (cell cycle stage: mitosis). For the same sequence, in data set [4], the “solubility in G1/S (log2)” value was -0.125.

(Values after the supplement of paper PMC5998384.)
